Measurements published in article PMC2800235.

Molecular target: MBP-transposase fusion protein (reconstituted ancestral Hsmar1 transposase) (human (reconstructed ancestral sequence of the human Hsmar1 transposon))
Test: SEC

stoichiometry N: 2
Substance: MBP-transposase fusion protein (reconstituted ancestral Hsmar1 transposase) (enzyme)
